B1: 17-mer TRS ssRNA (ssRNA)
RNA: UGUUCUCUAAACGAACU
B2: 17-mer TRS ssDNA (ssDNA)
DNA: TGTTCTCTAAACGAACT
B3: 11-mer TRS ssRNA (ssRNA)
RNA: UCUAAACGAAC

How the values were obtained:
[1] = target: T1, Nucleocapsid protein N (SARS-CoV-2, UniProt P0DTC9 1-419); assay: EMSA; details: protein: recombinant; tags: N-terminal His6-TEV, tag removed; chain copies: 2; single strand
[2] = target: T2, Nsp3 Ubl1 (SARS-CoV-2, UniProt P0DTD1 819-929); assay: EMSA; 3.8 uM Ubl1; details: protein: recombinant; tags: His tag removed by thrombin; single strand
[3] = target: T1, Nucleocapsid protein N; assay: EMSA; 3.8 uM N, 2.5 uM DNA; displaced by Ubl1; details: protein: recombinant; tags: N-terminal His6-TEV, tag removed; chain copies: 2; single strand
[4] = target: T2, Nsp3 Ubl1; assay: MST; Ubl1 1, 5, 10 uM; details: protein: recombinant; tags: His tag removed by thrombin; label: 5'-Cy5; single strand
[5] = target: T1, Nucleocapsid protein N; assay: MST; no Ubl1; 40 nM RNA; details: protein: recombinant; tags: N-terminal His6-TEV, tag removed; chain copies: 2; label: 5'-Cy5; single strand

| Binder | binding result [1] | binding result [2] | binding result [3] | binding result [4] | Kd [5] [µM] |
| --- | --- | --- | --- | --- | --- |
| B1 | binds | no binding |  |  |  |
| B2 |  | no binding | binds |  |  |
| B3 |  |  |  | no binding | 5.1 ± 0.6 |

Source: article PMC9938351, “Structural insights into ribonucleoprotein dissociation by nucleocapsid protein interacting with non-structural protein 3 in SARS-CoV-2”
